In US20220389111A1 (SHANGHAI EPIMAB BIOTHERAPEUTICS, published 2022):
Changes are numbered by the printed parent chain.

B1: EM0004-38c (antibody, human IgG1, kappa, L234A L235A, V domains shown)
VH: QVQLQQPGTELVKPGASVKLSCKASGYTFTSFWMHWVKQRPGQGLEWIGNINPRNGATKYNEKFRSKVTLTADKTSSTAYMHLSSLTSEDSAVYYCAREDYDEIYYAMDSWGQGTSVTVSS
VL: QNVLTQSPAIMSASPGEKVTMTCSASSSVIYMYWFQQKPGSSPRVLIYDTSNLASGVPARFSGSGSGTSYSLTISRMEAEDAATYYCQQWSTYPLTFGAGTKLELKR
notes: chimeric mAb638; also called EM04-38c
B2: EM0004-38c2 (antibody, human IgG1, kappa, L234A L235A, name in Kabat numbering, V domains shown)
VH: B1 VH with G56A
VL: B1 VL
notes: chimeric mAb638 variant
B3: EM0004-38c1 (antibody, human IgG1, kappa, L234A L235A, name in Kabat numbering, V domains shown)
VH: B1 VH with N55Q
VL: B1 VL
notes: chimeric mAb638 variant; also called EM004-38c1
B4: HuEM0004-38-6 (antibody, human IgG1, kappa, L234A L235A, V domains shown)
VH: EVQLVQSGAEVKKPGASVKVSCKASGYTFTSFWMHWVRQAPGQGLEWMGNINPRNGATKYNEKFRSRVTMTADTSISTAYMELSRLRSDDTAVYYCAREDYDEIYYAMDSWGQGTTVTVSS
VL: ENVLTQSPATLSLSPGERATLSCSASSSVIYMYWFQQKPGQAPRLLIYDTSNLASGIPARFSGSGSGTDYTLTISSLEPEDFAVYYCQQWSTYPLTFGQGTKLEIKR
B5: HuEM0004-38-9 (antibody, human IgG1, kappa, L234A L235A, V domains shown)
VH: B4 VH with M48I, M70L, T74K
VL: B4 VL
B6: HuEM0004-38-13 (antibody, human IgG1, kappa, L234A L235A, V domains shown)
VH: B4 VH with M70L, T74K
VL: B4 VL with A42S, L45V
notes: humanized mAb638, human IgG1/kappa
B7: HuEM0004-38-20 (antibody, human IgG1, kappa, L234A L235A, V domains shown)
VH: B4 VH with M48I, R67K, M70L, T74K
VL: B4 VL with A42S, L45V, I57V
notes: as for B6
B8: HuEM0004-38-7 (antibody, human IgG1, kappa, L234A L235A, V domains shown)
VH: B4 VH with T74K
VL: B4 VL
notes: as for B6
B9: HuEM0004-38-11 (antibody, human IgG1, kappa, L234A L235A, V domains shown)
VH: B4 VH
VL: B4 VL with A42S, L45V
notes: as for B6
B10: HuEM0004-38-19 (antibody, human IgG1, kappa, L234A L235A, V domains shown)
VH: B4 VH with M48I, M70L, T74K
VL: B4 VL with A42S, L45V, I57V
notes: as for B6
B11: HuEM0004-38-16 (antibody, human IgG1, kappa, L234A L235A, V domains shown)
VH: B4 VH
VL: B4 VL with A42S, L45V, I57V
notes: as for B6
B12: HuEM0004-38-12 (antibody, human IgG1, kappa, L234A L235A, V domains shown)
VH: B4 VH with T74K
VL: B4 VL with A42S, L45V
notes: as for B6
B13: HuEM0004-38-15 (antibody, human IgG1, kappa, L234A L235A, V domains shown)
VH: B4 VH with M48I, R67K, M70L, T74K
VL: B4 VL with A42S, L45V
notes: as for B6
B14: HuEM0004-38-14 (antibody, human IgG1, kappa, L234A L235A, V domains shown)
VH: B4 VH with M48I, M70L, T74K
VL: B4 VL with A42S, L45V
notes: as for B6
B15: HuEM0004-38-17 (antibody, human IgG1, kappa, L234A L235A, V domains shown)
VH: B4 VH with T74K
VL: B4 VL with A42S, L45V, I57V
notes: as for B6
B16: HuEM0004-38-8 (antibody, human IgG1, kappa, L234A L235A, V domains shown)
VH: B4 VH with M70L, T74K
VL: B4 VL
notes: as for B6
B17: HuEM0004-38-10 (antibody, human IgG1, kappa, L234A L235A, V domains shown)
VH: B4 VH with M48I, R67K, M70L, T74K
VL: B4 VL
notes: as for B6
B18: HuEM0004-38-18 (antibody, human IgG1, kappa, L234A L235A, V domains shown)
VH: B4 VH with M70L, T74K
VL: B4 VL with A42S, L45V, I57V
notes: as for B6

The binders below were run against T1, human CD39 protein (recombinant) (human, UniProt P49961 38-478, limits assumed) (assay: cell-based or functional assay).
T1 sequence: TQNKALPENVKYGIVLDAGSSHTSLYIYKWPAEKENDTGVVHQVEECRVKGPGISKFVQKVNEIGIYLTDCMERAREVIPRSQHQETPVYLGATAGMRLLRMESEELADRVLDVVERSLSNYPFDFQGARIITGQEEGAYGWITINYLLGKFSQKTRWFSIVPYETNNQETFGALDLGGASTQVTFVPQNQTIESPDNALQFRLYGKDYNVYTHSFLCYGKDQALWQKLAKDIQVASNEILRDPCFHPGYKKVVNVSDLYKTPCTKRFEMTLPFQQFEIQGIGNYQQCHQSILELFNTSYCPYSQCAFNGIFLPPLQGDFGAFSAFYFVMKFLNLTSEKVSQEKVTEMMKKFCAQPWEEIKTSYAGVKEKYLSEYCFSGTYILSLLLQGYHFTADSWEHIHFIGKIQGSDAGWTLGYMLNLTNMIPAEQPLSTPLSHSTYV

Binder | ATPase inhibition IC50 | ATPase inhibition, inhibition %
B1 | 24.2 nM | 107%
B2 | 14.3 nM | 103%
B3 | 15.6 nM | 102%
B4 | 140 nM | 64.1%
B5 | 79.6 nM | 61.6%
B6 | 36.2 nM | 98.7%
B7 | 27.3 nM | 100%
B8 | 83.5 nM | 71.4%
B9 | 65.3 nM | 99.6%
B10 | 33.2 nM | 99.2%
B11 | 41 nM | 102%
B12 | 46.9 nM | 103%
B13 | 40.9 nM | 97.6%
B14 | 36.9 nM | 98.9%
B15 | 20.4 nM | 103%
B16 | 81.8 nM | 67.9%
B17 | 83.2 nM | 71.5%
B18 | 18.9 nM | 98.5%

What follows are binders tested against T1, human CD39 protein (recombinant) (assay: ELISA on coated human CD39 protein).
Description: To determine if anti-CD39 mAbs bind to human CD39, ELISA plates were incubated overnight at 4° C. with human CD39 protein or mouse CD39 protein diluted in PBS, pH7.4 buffer at 1 μg/ml. Plates were washed four times in washing buffer (PBS containing 0.05% Tween 20), and blocked for 1 hour at 37° C. with 200 μl per well blocking buffer (1% BSA in PBS containing 0.05% Tween 20). After blocking buffer was removed, hybridoma supernatant or diluted purified Abs were added to the wells at 100 μl per well and incubated at 37° C. for 1 hour. The wells were washed four times with washing buffer, and anti-mouse HRP (for mouse anti-human CD39 Ab characterization) or anti-rat HRP (for rat anti-mouse CD39 Ab characterization) (Sigma) were 1:5000 diluted and added to the wells at 100 μl per well. The plates were incubated for 1 hour at 37° C. and washed four times in washing buffer. 100 μl of tetramethylbenzidine (TMB) chromogenic solution were added per well. Following color development, the reaction was stopped with 1N HCl, and absorbance at 450 nm was measured. The data were proceeded by GraphPad software.
Humanized antibodies HuEM04-38-6 to HuEM0004-38-20 and chimeric antibodies EM04-38c, EM004-38c1, and EM0004-38c2 were tested for CD39 specific binding by ELISA as described in Example 1.2 and for inhibition of protein-based ATPase activity as described in Example 1.3.

Binder | EC50
B1 | 0.014 µg/mL
B2 | 0.016 µg/mL
B3 | 0.023 µg/mL
B6 | 0.023 µg/mL
B7 | 0.031 µg/mL
B8 | 0.149 µg/mL
B9 | 0.021 µg/mL
B10 | 0.02 µg/mL
B11 | 0.027 µg/mL
B12 | 0.023 µg/mL
B13 | 0.031 µg/mL
B14 | 0.021 µg/mL
B15 | 0.044 µg/mL
B16 | 0.097 µg/mL
B17 | 0.175 µg/mL
B18 | 0.019 µg/mL
